Reference: patent US20120135923A1, “Use of Melanocortins to Treat Dyslipidemia” (IPSEN PHARMA, S.A.S., priority 2009, published 2012)
Bridge positions count the residues as written; N and C are the ends. Square brackets hold non-standard residues; d marks the D form. Ends that are not written are not given here. Bip = N[C@@H](Cc1ccc(-c2ccccc2)cc1)C(=O)O; 1Nal = N[C@@H](Cc1cccc2ccccc12)C(=O)O; 2Nal = N[C@@H](Cc1ccc2ccccc2c1)C(=O)O; d2Nal = N[C@H](Cc1ccc2ccccc2c1)C(=O)O; Bta = N[C@@H](Cc1csc2ccccc12)C(=O)O; Pen = CC(C)(S)[C@H](N)C(=O)O; Nle = CCCC[C@H](N)C(=O)O; GABA = NCCCC(=O)O; βAla = NCCC(=O)O

B1: Ac-Nle-c(Pen-His-D-Phe-Arg-Trp-Gaba-Cys)-NH2 (peptide)
peptide: Ac-[Nle][Pen]H[dF]RW[GABA]C-NH2
modifications: disulfide 2-8
SMILES: CCCC[C@H](NC(C)=O)C(=O)N[C@@H]1C(=O)N[C@@H](Cc2c[nH]cn2)C(=O)N[C@H](Cc2ccccc2)C(=O)N[C@@H](CCCNC(=N)N)C(=O)N[C@@H](Cc2c[nH]c3ccccc23)C(=O)NCCCC(=O)N[C@H](C(N)=O)CSSC1(C)C
B2: D-Phe-c(Cys-His-D-Phe-Arg-Trp-Gaba-D-Cys)-Thr-NH2 (peptide)
peptide: [dF]CH[dF]RW[GABA][dC]T-NH2
modifications: disulfide 2-8; N-terminus assumed
SMILES: C[C@@H](O)[C@H](NC(=O)[C@H]1CSSC[C@H](NC(=O)[C@H](N)Cc2ccccc2)C(=O)N[C@@H](Cc2c[nH]cn2)C(=O)N[C@H](Cc2ccccc2)C(=O)N[C@@H](CCCNC(=N)N)C(=O)N[C@@H](Cc2c[nH]c3ccccc23)C(=O)NCCCC(=O)N1)C(N)=O
B3: D-Phe-c(Cys-His-D-Phe-Arg-Bip-β-Ala-D-Cys)-Thr-NH2 (peptide)
peptide: [dF]CH[dF]R[Bip][βAla][dC]T-NH2
modifications: disulfide 2-8; N-terminus assumed
SMILES: C[C@@H](O)[C@H](NC(=O)[C@H]1CSSC[C@H](NC(=O)[C@H](N)Cc2ccccc2)C(=O)N[C@@H](Cc2c[nH]cn2)C(=O)N[C@H](Cc2ccccc2)C(=O)N[C@@H](CCCNC(=N)N)C(=O)N[C@@H](Cc2ccc(-c3ccccc3)cc2)C(=O)NCCC(=O)N1)C(N)=O
B4: Hydantoin(C(O)-(Nle-Gly))-c(Cys-D-Ala-His-D-Phe-Arg-Trp-Cys)-NH2 (peptide)
peptide: [Nle]GC[dA]H[dF]RWC-NH2
modifications: disulfide 3-9; also: N-terminal hydantoin: C(O) bridges X1 N-terminal N and G2 backbone N, bridge at N via C(O), other end not in the chain
B5: Ac-c(Cys-Glu-His-D-2-Nal-Arg-2-Nal-Ala-Cys)-Pro-Pro-Lys-Asp-NH2 (peptide)
peptide: Ac-CEH[d2Nal]R[2Nal]ACPPKD-NH2
modifications: disulfide 1-8
SMILES: CC(=O)N[C@H]1CSSC[C@@H](C(=O)N2CCC[C@H]2C(=O)N2CCC[C@H]2C(=O)N[C@@H](CCCCN)C(=O)N[C@@H](CC(=O)O)C(N)=O)NC(=O)[C@H](C)NC(=O)[C@H](Cc2ccc3ccccc3c2)NC(=O)[C@H](CCCNC(=N)N)NC(=O)[C@@H](Cc2ccc3ccccc3c2)NC(=O)[C@H](Cc2c[nH]cn2)NC(=O)[C@H](CCC(=O)O)NC1=O
B6: Ac-c(Cys-Glu-His-D-2-Nal-Arg-Bal-Ala-Cys)-Pro-Pro-Lys-Asp-NH2 (peptide)
peptide: Ac-CEH[d2Nal]R[Bta]ACPPKD-NH2
modifications: disulfide 1-8
SMILES: CC(=O)N[C@H]1CSSC[C@@H](C(=O)N2CCC[C@H]2C(=O)N2CCC[C@H]2C(=O)N[C@@H](CCCCN)C(=O)N[C@@H](CC(=O)O)C(N)=O)NC(=O)[C@H](C)NC(=O)[C@H](Cc2csc3ccccc23)NC(=O)[C@H](CCCNC(=N)N)NC(=O)[C@@H](Cc2ccc3ccccc3c2)NC(=O)[C@H](Cc2c[nH]cn2)NC(=O)[C@H](CCC(=O)O)NC1=O
B7: Ac-c(Cys-Glu-His-D-2-Nal-Arg-1-Nal-Ala-Cys)-Pro-Pro-Lys-Asp-NH2 (peptide)
peptide: Ac-CEH[d2Nal]R[1Nal]ACPPKD-NH2
modifications: disulfide 1-8
SMILES: CC(=O)N[C@H]1CSSC[C@@H](C(=O)N2CCC[C@H]2C(=O)N2CCC[C@H]2C(=O)N[C@@H](CCCCN)C(=O)N[C@@H](CC(=O)O)C(N)=O)NC(=O)[C@H](C)NC(=O)[C@H](Cc2cccc3ccccc23)NC(=O)[C@H](CCCNC(=N)N)NC(=O)[C@@H](Cc2ccc3ccccc3c2)NC(=O)[C@H](Cc2c[nH]cn2)NC(=O)[C@H](CCC(=O)O)NC1=O

target: hMC1-R (human) (UniProt Q01726); experiment: ratio Ki hMC1-R / Ki hMC4-R, same assay
Sequence (Q01726 whole entry): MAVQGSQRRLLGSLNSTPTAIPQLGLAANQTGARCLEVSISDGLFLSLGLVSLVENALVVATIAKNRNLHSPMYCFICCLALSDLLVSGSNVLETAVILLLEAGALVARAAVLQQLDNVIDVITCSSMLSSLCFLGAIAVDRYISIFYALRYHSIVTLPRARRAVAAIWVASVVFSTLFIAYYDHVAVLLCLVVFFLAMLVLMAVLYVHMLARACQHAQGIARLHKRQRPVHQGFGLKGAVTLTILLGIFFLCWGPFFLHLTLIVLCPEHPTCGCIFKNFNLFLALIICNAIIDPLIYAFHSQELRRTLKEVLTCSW

Row | Ki hMC1-R/MC4-R | Binder
1 | 0.09 | B1
2 | 0.09 | B2
3 | 0.01 | B3

target: hMC1-R (human) (UniProt Q01726); experiment: competition with [125I]-NDP-α-MSH, CHO-K1 membranes

Row | Ki | Binder
4 | 0.537 nM | B1
5 | 0.42 nM | B2
6 | 5.8 nM | B3

target: hMC3-R (human) (UniProt P41968); experiment: as above
Sequence (P41968 whole entry): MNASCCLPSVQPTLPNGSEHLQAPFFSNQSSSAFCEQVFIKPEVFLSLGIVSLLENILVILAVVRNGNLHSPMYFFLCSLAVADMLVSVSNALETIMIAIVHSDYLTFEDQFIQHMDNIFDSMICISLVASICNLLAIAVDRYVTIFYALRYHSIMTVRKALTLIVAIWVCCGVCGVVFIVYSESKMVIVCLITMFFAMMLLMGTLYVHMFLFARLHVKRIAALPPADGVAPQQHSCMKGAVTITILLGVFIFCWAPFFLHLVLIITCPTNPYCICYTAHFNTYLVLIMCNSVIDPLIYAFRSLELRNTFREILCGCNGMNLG

Row | Ki | Binder
7 | 86.1 nM | B1
8 | 106 nM | B2
9 | 3370 nM | B3

target: hMC4-R (human) (UniProt P32245); experiment: as above
Sequence (P32245 whole entry): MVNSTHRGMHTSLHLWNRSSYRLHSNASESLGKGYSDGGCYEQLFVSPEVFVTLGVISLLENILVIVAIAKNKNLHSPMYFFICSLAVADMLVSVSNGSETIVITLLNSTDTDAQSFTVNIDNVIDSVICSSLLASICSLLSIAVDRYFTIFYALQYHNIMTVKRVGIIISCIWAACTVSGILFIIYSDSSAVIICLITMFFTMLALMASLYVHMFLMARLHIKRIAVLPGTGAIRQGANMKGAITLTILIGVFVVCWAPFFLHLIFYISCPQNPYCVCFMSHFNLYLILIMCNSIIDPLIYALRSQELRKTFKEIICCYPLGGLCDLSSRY

Row | Ki | Binder
10 | 5.89 nM | B1
11 | 4.75 nM | B2
12 | 583 nM | B3

target: hMC5-R (human) (UniProt P33032); experiment: as above
Sequence (P33032 whole entry): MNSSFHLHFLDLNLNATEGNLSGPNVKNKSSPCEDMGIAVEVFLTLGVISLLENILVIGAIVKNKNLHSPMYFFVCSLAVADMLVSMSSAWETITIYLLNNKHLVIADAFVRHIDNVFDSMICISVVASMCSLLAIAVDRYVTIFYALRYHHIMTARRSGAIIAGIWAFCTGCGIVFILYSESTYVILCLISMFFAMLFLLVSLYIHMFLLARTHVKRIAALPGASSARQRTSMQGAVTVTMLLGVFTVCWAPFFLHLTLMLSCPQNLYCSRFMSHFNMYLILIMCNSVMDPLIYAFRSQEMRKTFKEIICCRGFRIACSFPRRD

Row | Ki | Binder
13 | 2.56 nM | B1
14 | 1260 nM | B2
15 | 1130 nM | B3

target: human melanocortin receptor subtype 1 (hMC1-R) (human), Q01726; experiment: [125I]-NDP-α-MSH competition, membranes
Sequence (Q01726 whole entry): as the sequence (Q01726 whole entry) above

Row | Ki | Binder
16 | 7.92 nM | B4
17 | 13.9 nM | AGC[dA]H[dF]RWC-NH2 (disulfide 3-9; also: hydantoin ring: C(O) bridging Ala-Gly) [Hydantoin(C(O)-(Ala-Gly))-c(Cys-D-Ala-His-D-Phe-Arg-Trp-Cys)-NH2]
18 | 87.8 nM | B5
19 | 163 nM | B6
20 | 124 nM | B7
21 | 20.9 nM | GGC[dA]H[dF]RWC-NH2 (disulfide 3-9; also: hydantoin ring from C(O) with Gly1-Gly2) [Hydantoin(C(O)-(Gly-Gly))-c(Cys-D-Ala-His-D-Phe-Arg-Trp-Cys)-NH2]

target: human melanocortin receptor subtype 3 (hMC3-R) (human), P41968; experiment: [125I]-NDP-α-MSH competition, membranes
Sequence (P41968 whole entry): as the sequence (P41968 whole entry) above

Row | Ki | Binder
22 | 46.4 nM | B4
23 | 38.4 nM | AGC[dA]H[dF]RWC-NH2 (disulfide 3-9; also: hydantoin ring: C(O) bridging Ala-Gly) [Hydantoin(C(O)-(Ala-Gly))-c(Cys-D-Ala-His-D-Phe-Arg-Trp-Cys)-NH2]
24 | 9.08 nM | B5
25 | 23 nM | B6
26 | 17.8 nM | B7
27 | 69.7 nM | GGC[dA]H[dF]RWC-NH2 (disulfide 3-9; also: hydantoin ring from C(O) with Gly1-Gly2) [Hydantoin(C(O)-(Gly-Gly))-c(Cys-D-Ala-His-D-Phe-Arg-Trp-Cys)-NH2]

target: human melanocortin receptor subtype 4 (hMC4-R) (human), P32245; experiment: [125I]-NDP-α-MSH competition, membranes
Sequence (P32245 whole entry): as the sequence (P32245 whole entry) above

Row | Ki | Binder
28 | 6.7 nM | B4
29 | 5.73 nM | AGC[dA]H[dF]RWC-NH2 (disulfide 3-9; also: hydantoin ring: C(O) bridging Ala-Gly) [Hydantoin(C(O)-(Ala-Gly))-c(Cys-D-Ala-His-D-Phe-Arg-Trp-Cys)-NH2]
30 | 1.2 nM | B5
31 | 0.586 nM | B6
32 | 1.11 nM | B7
33 | 8.32 nM | GGC[dA]H[dF]RWC-NH2 (disulfide 3-9; also: hydantoin ring from C(O) with Gly1-Gly2) [Hydantoin(C(O)-(Gly-Gly))-c(Cys-D-Ala-His-D-Phe-Arg-Trp-Cys)-NH2]

target: human melanocortin receptor subtype 5 (hMC5-R) (human), P33032; experiment: [125I]-NDP-α-MSH competition, membranes
Sequence (P33032 whole entry): as the sequence (P33032 whole entry) above

Row | Ki | Binder
34 | 21.3 nM | B4
35 | 18.9 nM | AGC[dA]H[dF]RWC-NH2 (disulfide 3-9; also: hydantoin ring: C(O) bridging Ala-Gly) [Hydantoin(C(O)-(Ala-Gly))-c(Cys-D-Ala-His-D-Phe-Arg-Trp-Cys)-NH2]
36 | 359 nM | B5
37 | 844 nM | B6
38 | 348 nM | B7
39 | 50 nM | GGC[dA]H[dF]RWC-NH2 (disulfide 3-9; also: hydantoin ring from C(O) with Gly1-Gly2) [Hydantoin(C(O)-(Gly-Gly))-c(Cys-D-Ala-His-D-Phe-Arg-Trp-Cys)-NH2]
